Data set [1] addresses AaFtsH-Δ20 mutant (Aquifex aeolicus) (UniProt O67077). In words: SEC-MALS; Superose 6 Increase 10/300 GL, 20 mM Tris-HCl pH 8.0, 150 mM NaCl, 0.01% LMNG, room temperature; protein conjugate analysis; step: subunits to hexamer (second peak). In general terms: In gel filtration, larger molecules generally elute earlier.
Substrate in the data set “purified protein”: Nc1ncnc2c1ncn2[C@@H]1O[C@H](COP(=O)(O)OP(=O)(O)OP(=O)(O)O)[C@@H](O)[C@H]1O
In words: purified protein. The note with it: 50 mM Tris-HCl pH 8.0, 150 mM NaCl, 10 mM MgCl2, 60 °C, 0.25 μM AaFtsH (monomer concentration).

Data set [2] concerns the molecule itself. The data set can be described thus: SEC-MALS; Superose 6 Increase 10/300 GL, 20 mM Tris-HCl pH 8.0, 150 mM NaCl, 0.01% LMNG, room temperature; protein conjugate analysis; step: two hexamers to a dodecamer in one LMNG micelle (first peak).
Data set [3] concerns the molecule itself. In words: SEC-MALS; Superose 6 Increase 10/300 GL, 20 mM Tris-HCl pH 8.0, 150 mM NaCl, 0.01% LMNG, room temperature; protein conjugate analysis; step: subunits to hexamer (second peak).

Four molecules from publication PMC7949044, “The cytoplasmic domain of the AAA+ protease FtsH is tilted with respect to the membrane to facilitate substrate entry” (The Journal of Biological Chemistry, 2020) can be followed below.

The term stoichiometry N denotes a count of units in the complex or per binding partner. As usually defined, the kcat is the maximal rate divided by the concentration of active sites.

Molecule “AaFtsH-Δ20 mutant (from UniProt O67077 1-634) (enzyme)” registered a stoichiometry N in data set [1] of 6.

B1: AaFtsH hexamer (Aquifex aeolicus VF5) (protein)
chain: MNALKNFFIWAIIIGAAIVAFNLFEGKREFTTKVSLNEVVKLVEEGKVSYAEVRGNTAIIQTKDGQKLEVTLPPNTNLVDKMVEKGVRVEVANPEPPGGWLVNVFLSWLPILFFIGIWIFLLRQMSGGGNVNRAFNFGKSRAKVYIEEKPKVTFKDVAGIEEVKEEVKEIIEYLKDPVKFQKLGGRPPKGVLLYGEPGVGKTLLAKAIAGEAHVPFISVSGSDFVEMFVGVGAARVRDLFETAKKHAPCIIFIDEIDAVGRARGAIPVGGGHDEREQTLNQLLVEMDGFDTSDGIIVIAATNRPDILDPALLRPGRFDRQIFIPKPDVRGRYEILKVHARNKKLAKDVDLEFVARATPGFTGADLENLLNEAALLAARKGKEEITMEEIEEALDRITMGLERKGMTISPKEKEKIAIHEAGHALMGLVSDDDDKVHKISIIPRGMALGVTQQLPIEDKHIYDKKDLYNKILVLLGGRAAEEVFFGKDGITTGAENDLQRATDLAYRMVSMWGMSDKVGPIAIRRVANPFLGGMTTAVDTSPDLLREIDEEVKRIITEQYEKAKAIVEEYKEPLKAVVKKLLEKETITCEEFVEVFKLYGIELKDKCKKEELFDKDRKSEENKELKSEEVKEEVV
In the case of B1, in the data set “purified protein”, the Km was 600 (95% CI: 480–754) μM and the kcat was 63 min⁻¹.

B2: full-length Aquifex aeolicus FtsH (enzyme, UniProt O67077 1-634, looked up)
chain: MNALKNFFIWAIIIGAAIVAFNLFEGKREFTTKVSLNEVVKLVEEGKVSYAEVRGNTAIIQTKDGQKLEVTLPPNTNLVDKMVEKGVRVEVANPEPPGGWLVNVFLSWLPILFFIGIWIFLLRQMSGGGNVNRAFNFGKSRAKVYIEEKPKVTFKDVAGIEEVKEEVKEIIEYLKDPVKFQKLGGRPPKGVLLYGEPGVGKTLLAKAIAGEAHVPFISVSGSDFVEMFVGVGAARVRDLFETAKKHAPCIIFIDEIDAVGRARGAIPVGGGHDEREQTLNQLLVEMDGFDTSDGIIVIAATNRPDILDPALLRPGRFDRQIFIPKPDVRGRYEILKVHARNKKLAKDVDLEFVARATPGFTGADLENLLNEAALLAARKGKEEITMEEIEEALDRITMGLERKGMTISPKEKEKIAIHEAGHALMGLVSDDDDKVHKISIIPRGMALGVTQQLPIEDKHIYDKKDLYNKILVLLGGRAAEEVFFGKDGITTGAENDLQRATDLAYRMVSMWGMSDKVGPIAIRRVANPFLGGMTTAVDTSPDLLREIDEEVKRIITEQYEKAKAIVEEYKEPLKAVVKKLLEKETITCEEFVEVFKLYGIELKDKCKKEELFDKDRKSEENKELKSEEVKEEVV
notes: the cited crystal structure PDB 4WW0 holds only the cytosolic domain, residues 141-608; The molecule is the protomer; In LMNG it is found as a hexamer (second SEC peak) and as a dodecamer of two hexamers in one LMNG micelle (first SEC peak); Before SEC it was incubated overnight at 60 °C with 20 mM ATP, 10 mM MgCl2 and 25 uM ZnCl2; also called AaFtsH; AaFtsH wildtype; source: E. coli, …
Turning to B2, the “stoichiometry N” value was about 12 in data set [2] and 6 in data set [3].

B3: AaFtsH dodecamer (Aquifex aeolicus VF5) (protein)
chain: MNALKNFFIWAIIIGAAIVAFNLFEGKREFTTKVSLNEVVKLVEEGKVSYAEVRGNTAIIQTKDGQKLEVTLPPNTNLVDKMVEKGVRVEVANPEPPGGWLVNVFLSWLPILFFIGIWIFLLRQMSGGGNVNRAFNFGKSRAKVYIEEKPKVTFKDVAGIEEVKEEVKEIIEYLKDPVKFQKLGGRPPKGVLLYGEPGVGKTLLAKAIAGEAHVPFISVSGSDFVEMFVGVGAARVRDLFETAKKHAPCIIFIDEIDAVGRARGAIPVGGGHDEREQTLNQLLVEMDGFDTSDGIIVIAATNRPDILDPALLRPGRFDRQIFIPKPDVRGRYEILKVHARNKKLAKDVDLEFVARATPGFTGADLENLLNEAALLAARKGKEEITMEEIEEALDRITMGLERKGMTISPKEKEKIAIHEAGHALMGLVSDDDDKVHKISIIPRGMALGVTQQLPIEDKHIYDKKDLYNKILVLLGGRAAEEVFFGKDGITTGAENDLQRATDLAYRMVSMWGMSDKVGPIAIRRVANPFLGGMTTAVDTSPDLLREIDEEVKRIITEQYEKAKAIVEEYKEPLKAVVKKLLEKETITCEEFVEVFKLYGIELKDKCKKEELFDKDRKSEENKELKSEEVKEEVV
For B3, in the data set “purified protein”, the Km was 518 (95% CI: 432–625) μM and the kcat worked out at 61 min⁻¹.
